Test results published in the NTF2 design screens of Basanta et al. (2020).

assay: protease stability score; higher = more stable; yeast display proteolysis, trypsin and chymotrypsin;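 also: log10 excess protease needed over predicted unfolded state with 0 meaning unfolded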

Question: For “DEDDERQMEEVVETGDPDRMAENADPNVRVDVGDHEVHGRERAQKMWQQEKKQVDHLEVKEVHTENGRINADVVVVVNGRSLQVTVVASMHNGKIEYYSIQFTSEKQKKQWHDANG”, which protease stability score is on record?
Answer: -0.048

Question: With “DEDDKQEFAKSYNEVWKTGNEENAKRLFDENARMRVGDKEFHGHESIAHFLAEQVKRIDHIEFKQVDVQGEDMVFVFHFTVDGRKVHMTVKLRIHNGRIKDATINPQDIKKMEK” as the sequence, how does the protease stability score read?
Answer: 0.603

Question: Which protease stability score does the source give for “DEDDKQRHAEKYAKLWQEGNEDELQKQMDPNAKVVVGEKRLKGREQIKKWLEEWRKHADEVQVISVSVEGERLVIRFRANINGKTYHDTQTMIYDNGEIQDVRFDPKWLHDLKR” here?
Answer: 0.625

Question: Which protease stability score does the source give for “DEDDLERKDEEFQRLMKTGNFEELAQQADKDVRVQIGDKQLHGRRQIKKYQEEMQRKADHFDVKRVDIQGDTVDAVIENRHNGHHQVVRIQVNMHNGTIKEVTIHSS” here?
Answer: -0.02

Question: With “DEDDLETLLKKIIDAMRNGDPKQMMRLVDENAKLVVGDKTVHGREEVSKWMKELRRQVDDNDYKDFHVQGDKARIDHFVNINGTNTERVIDIEVHNGRVKRLVYHEK” as the sequence, how does the protease stability score read?
Answer: 0.159

Question: For “DEDDLQRKVERINSALQTNDEDEFVRQLDEDAKISVGDKTVHGQEKAREWVQDLRRTVDHIRVDHVKVHNGRAHVTMKAVVNGKNVEITMQMTLHNGKVKEMRIDPEDVEKLEG”, which protease stability score is on record?
Answer: 0.807

Question: Which protease stability score does the source give for “DEDDLRHVEKVLRENDEDTFAEMADEDVSADIGDKTLTGREEVKKMLQKLHKQADHVEIKSVTNRGDNVKVDMVMNYNGRNLRFSRSAEFTNGRIKHVSIRVTSEEDQDVLQRLLD” here?
Answer: 0.811

Question: For “DEDDLRRAQKDLQQNDFHKIARDADENVRVRIGDTTYHGRETLISFLKEMQDRADHVSIKHISVEGDKITADFEMQVDGKTDTFDLFIVVHNGRYQHVHFEVRSEDFSKFMREIES”, which protease stability score is on record?
Answer: 1.02

Question: Which protease stability score does the source give for “DEDDLRRIIKEFQKALKTGDTDEIRRQIDPNAHARYGDKEVHGREQLLSRLDELMNNVDHMQIDDLTFRGDKATVDFVMNHNGHERRHILHMVVHNGTIKSAHLDDS” here?
Answer: 1.01

Question: Which protease stability score does the source give for “DEDDLRRLAEDFVRVLKTGDEDRLSELFDPNAKVSVGDHEYHGSENIVRALVEFARRVDELEVNSITIENGRVKIDAFATVNGKRVSVIIEIQYHNGRAKYVEFKYTSEEENRRFKN” here?
Answer: 0.466

Question: Which protease stability score does the source give for “DEDDLRRRANEVAEVLHDNDEESMKSLVDPNADIEIGDKRLHGRDDMEKWMQERKRRVDHLTLHSFNVHNGRVDIDARVEVNGQQERYRMVVEFHNGVAKHINFTST” here?
Answer: 0.569

Question: For “DEDDLVRQMVDRAEEAAQTGDEKKFANLFDPNARFRYGDKDVHGREEWEKRLDEERKRADRLHIKFDSVRVHGDKVDLHFTWRVVVNGESSERVVIIHAVKQGDRIVAKYVREG”, which protease stability score is on record?
Answer: 0.611

Question: With “DEDDMRKWEELMRAFETGDEKKATELVDPNATFKVGDKTYHGREHFIKDLFTKVKEIHIQMRIRDIQQSGDFAVVHLVKSNHNNGKPNSDVAVVLVRMDNGKLKYVQETKDQ” as the sequence, how does the protease stability score read?
Answer: 0.587

Question: For “DEDDMRRLEQLFRDIQTGNPERVRTLVDKNAELRVGDKRIKGREDVHRSVKKNRDEIRYSIDRLSADVKGDQVEMTVTAQKEHNGEPRSFKFTMTAKFRNGKLQHLDVHEEK”, which protease stability score is on record?
Answer: -0.297

Question: For “DEDDNKIAKEWYKAIQRGDPDRVKQLVDPNVKIRIGDKDIRGRENFATEVERMRDEIEVVFKVKDMKDQGDKANVEYEYQTQSNGRPRTKSQTVNVSMHNGHVKHVNVRDDQ”, which protease stability score is on record?
Answer: -0.301

Question: Which protease stability score does the source give for “DEDDNRKMHKLMETGDFEKIAHHADPNAHAKYGDKTVTGKEELKSVFTKFNRAVDHVQVQDVRIRGDKVTLDAEVNVNGQTVQVTVSARAHNGQIKHFKIQARDEQIQRDIKDALE” here?
Answer: 0.845

Question: Which protease stability score does the source give for “DEDDQERKLRKIAKNITKGDKTSLLKMVDKDAKASVGDKTVEGDNQLKRVMEERTRRIDHLDLKDVKVTGNTLVVHYVIHHNGKNKHQVAFVVLDNGRIKSMSFHDG” here?
Answer: -0.08

Question: With “DEDDQKLITEFLKALERGDPDRLLENADPNASARVGDKDVHGMHNAATDWVRERNSMDVTYDSVEIHVHNGRATIHLDAQFDFNGKPWRDTMTVEIVIRNGKIKDIIFRFDEQQLRDITK” as the sequence, how does the protease stability score read?
Answer: 0.714

Question: Which protease stability score does the source give for “DEDDQKNFSQMLNALDTGDEKRVVELADPNAKVEYGDKTYSGMEKYAHDRAKQRKEWRYHQTIDKVNVKNGRVEIHMKANFKINGQPRSMRFSVTVEAHNGKLKNLDFRFSEEDRKKLEG” here?
Answer: -0.024

Question: Which protease stability score does the source give for “DEDDQLRKLLEEIVDALDRGNESELRNLMDKDVRVDVGDKTITGRENAAEFLIRLANEADEIDINITDLKVDNGNISLRFQLHLHHNGRNVTRQVTIVIDRKGDELKVKYIRMS” here?
Answer: 0.031

Question: With “DEDDQRRKAETLVRQISTGNPDDLKKMVDPNVKVKVGDKEYHGREEMAKDIKHIEDAVDHLEVKSVDAHNGRIDIVIVMHINGTRVHMRVEFQLNNGKVKSAERRYTDQDQKNTFER” as the sequence, how does the protease stability score read?
Answer: -0.39

Question: With “DEDDQVRKILETQDRAMRTGDEDTYVNQADKDVRVKVGDKKLRGREEWKKEVTRIIERVDHFDVHIDHIDHQGDKIVIRQVIVLEHDGRRDSKTYNMTARNKNGRVKWKEVTEK” as the sequence, how does the protease stability score read?
Answer: -0.205

Question: With “DEDDRKRVAKEFMDNLNTGNEDEALKLADKDARLRYGDKTLHGREQIKDWLHTLRERIDSIEVHRIEVQGDKVRVRASVVINGKEEMVDINFRMSNGRLEKVTFDPRLDEMLKG” as the sequence, how does the protease stability score read?
Answer: 1.44

Question: With “DEDDRRRQARKLASALVTGNHQEVRELADKDVHAEYGDRRYRGREKLDEAAKDMHKQADSLTVRDVKFTGDKVNIDLQLNINGRRLTVSLTAQLENGRFKEIVVQVTDPETLRHVKQ” as the sequence, how does the protease stability score read?
Answer: -0.03

Question: For “DEDDVDRVRNLIHALNKGNPDDVNNQADENVRFVIGDKTFHGKETLRTRIEEQKSHSRYQVDSVHAEARNGQVEVHVNMTMTENGQPRKNTYEIQARVHNGRVKDFRMTESR”, which protease stability score is on record?
Answer: -0.336
